Laboratory results: PMC11301080

Target: recombinant HIV-1 gp120 ZM109 (HIV-1)
Test: BLI

Substance | Kd [nM]
Streptococcal Siglec-like lectin SLBR-N, GST-tagged (domain or fragment) | 40.3
recombinant FimH protein, lectin domain only (from UniProt P08191 22-179) (domain or fragment) | 360
